Sequences and labels used below:
B1: OR4K15 (parent)
chain: GUUAACGGUCAUAGGCCAUGGAAACUAGGAGCACCAUUUCGCUGCCAGUGAAGAAAUGAACAAAGAAAAUCUGGGCCAGGCAGGCAUCAAAAGAAAUAGUCUUGCGCUCAACCAGAAAGUCUGUAAUCAUUUUAAGGGUA

The results in this text go back to the RNAGym collection of RNA variant scans (doi:10.7554/elife.90254).

Variants of B1 are the subject of this data set. As to the kind of experiment: self-cleavage, relative activity (ratio to wild type); higher = more cleavage; in vitro, sequencing; the parent is a self-cleaving ribozyme.
GUUAACGGUCAUAGGCCAUGGAAACUAGGAGCACCAUUUCGCUGCCAGUGAAGAAAUGAACAAGGAAAAUCUGGGCCAGGCAGGCAUCAAAAGGAAUAGUCUUGCGCUCAACCAGAAAGUCUGUAAUCAUUUUAAGGGUA [A64G A94G]: the self-cleavage worked out at 1.74.
To GUUAACGGUCAUAGGCCAUGGAAACUAGGAGCACCAUUUCGCUGCCAGUGAAGAAAUGAACAUAGAAAAUCUGGGCCAGGCAGGCGUCAAAAGAAAUAGUCUUGCGCUCAACCAGAAAGUCUGUAAUCAUUUUAAGGGUA [A63U A86G] belongs 2.75; to GUUAACGGUCAUAGGCCAUGGAAACUAGGAGCACCAUUUCGCUGCCAGUGAAGAAAUGAACAUAGAAAAUCUGGGCCAGGCAGGCAUCAAAAGAAAUAGCCUUGCGCUCAACCAGAAAGUCUGUAAUCAUUUUAAGGGUA [A63U U100C], 2.04; to GUUAACGGUCAUAGGCCAUGGAAACUAGGAGCACCAUUUCGCUGCCAGUGAAGAAAUGAACAUAGAAAAUCUGGGCCAGGCAGGCAUCAAAAGAAAUAGUCUUGCGCUCAACCAGAAAGUCUGUAAUCACUUUAAGGGUA [A63U U130C], 0.28.
As for GUUAACGGUCAUAGGCCAUGGAAACUAGGAGCACCAUUUCGCUGCCAGUGAAGAAAUGAACAUGGAAAAUCUGGGCCAGGCAGGCAUCAAAAGAAAUAGUCUUGCGCUCAACCAGAAAGUCUGUAAUCAUUUUAAGGGUA [A63U A64G], the figure is 0.94; as for GUUAACGGUCAUAGGCCAUGGAAACUAGGAGCACCAUUUCGCUGCCAGUGAAGAAAUGAACAUAGAAAAUCUGGGCCAGGCAGGCAUCAUAAGAAAUAGUCUUGCGCUCAACCAGAAAGUCUGUAAUCAUUUUAAGGGUA [A63U A90U], 1.93.
To GUUAACGGUCAUAGGCCAUGGAAACUAGGAGCACCAUUUCGCUGCCAGUGAAGAAAUGAACAAGGAAUAUCUGGGCCAGGCAGGCAUCAAAAGAAAUAGUCUUGCGCUCAACCAGAAAGUCUGUAAUCAUUUUAAGGGUA [A64G A68U] belongs 1.42.
On to GUUAACGGUCAUAGGCCAUGGAAACUAGGAGCACCAUUUCGCUGCCAGUGAAGAAAUGAACAACGAAAAUCUGGGCCAGGCAGGCAUCAAAAGAGAUAGUCUUGCGCUCAACCAGAAAGUCUGUAAUCAUUUUAAGGGUA [A64C A95G], for which the self-cleavage came out at 2.58.
To GUUAACGGUCAUAGGCCAUGGAAACUAGGAGCACCAUUUCGCUGCCAGUGAAGAAAUGAACAUAGAAAAUCUGGGCCAGGCAGGCAUCAAAAGAAAUAGUCUCGCGCUCAACCAGAAAGUCUGUAAUCAUUUUAAGGGUA [A63U U103C] belongs 1.58; to GUUAACGGUCAUAGGCCAUGGAAACUAGGAGCACCAUUUCGCUGCCAGUGAAGAAAUGAACAUAGAAAAUCUGGGCCAGGCAGGCAUCAAAAGAGAUAGUCUUGCGCUCAACCAGAAAGUCUGUAAUCAUUUUAAGGGUA [A63U A95G], 1.78; to GUUAACGGUCAUAGGCCAUGGAAACUAGGAGCACCAUUUCGCUGCCAGUGAAGAAAUGAACAUAGAAAAUCUGGGCCAGGCAGGCAUCAAAAGUAAUAGUCUUGCGCUCAACCAGAAAGUCUGUAAUCAUUUUAAGGGUA [A63U A94U], 1.96.
As for GUUAACGGUCAUAGGCCAUGGAAACUAGGAGCACCAUUUCGCUGCCAGUGAAGAAAUGAACAUAGAAAAUCUGGGCCAGGCAGGCAUCAAAAGAAGUAGUCUUGCGCUCAACCAGAAAGUCUGUAAUCAUUUUAAGGGUA [A63U A96G], the figure is 1.74; as for GUUAACGGUCAUAGGCCAUGGAAACUAGGAGCACCAUUUCGCUGCCAGUGAAGAAAUGAACAUAGAAAAUCUGGGCCAGGCAGGCAUCAAAAGAAAUAGUCUUGCGCUCAACCAGAAAGUCUGUAACCAUUUUAAGGGUA [A63U U127C], 1.25; as for GUUAACGGUCAUAGGCCAUGGAAACUAGGAGCACCAUUUCGCUGCCAGUGAAGAAAUGAACAUAGAAAAUCUGGGCCAGGCAGGCAUCAAAAGAAAUAGUCUUGCGCUCAACCAGAAAGUCCGUAAUCAUUUUAAGGGUA [A63U U122C], 1.57.
GUUAACGGUCAUAGGCCAUGGAAACUAGGAGCACCAUUUCGCUGCCAGUGAAGAAAUGAACAACGAAAAUCUGGCCCAGGCAGGCAUCAAAAGAAAUAGUCUUGCGCUCAACCAGAAAGUCUGUAAUCAUUUUAAGGGUA [A64C G75C]: the self-cleavage was found to be 0.21.
As for GUUAACGGUCAUAGGCCAUGGAAACUAGGAGCACCAUUUCGCUGCCAGUGAAGAAAUGAACAACGAAAAUCUGGGUCAGGCAGGCAUCAAAAGAAAUAGUCUUGCGCUCAACCAGAAAGUCUGUAAUCAUUUUAAGGGUA [A64C C76U], the figure is 0.26.
As for GUUAACGGUCAUAGGCCAUGGAAACUAGGAGCACCAUUUCGCUGCCAGUGAAGAAAUGAACAAGGAAAAUCUGGGCCGGGCAGGCAUCAAAAGAAAUAGUCUUGCGCUCAACCAGAAAGUCUGUAAUCAUUUUAAGGGUA [A64G A78G], the figure is 0.28; as for GUUAACGGUCAUAGGCCAUGGAAACUAGGAGCACCAUUUCGCUGCCAGUGAAGAAAUGAACAUAGAAAAUCUGGGCCAGGCAGGCAUCAAAAGAAAUAGUCUUGCGCUCAACCAGAAGGUCUGUAAUCAUUUUAAGGGUA [A63U A118G], 1.71.
As for GUUAACGGUCAUAGGCCAUGGAAACUAGGAGCACCAUUUCGCUGCCAGUGAAGAAAUGAACAUAGAAAAUCUGGGCCAGGCAGGCAUCAAAAGAAAUAGUCUUGCGCUCAACCAGAAAGUCUGUAAUCAUUCUAAGGGUA [A63U U132C], the figure is 1.98; as for GUUAACGGUCAUAGGCCAUGGAAACUAGGAGCACCAUUUCGCUGCCAGUGAAGAAAUGAACAUAGAAAAUCCGGGCCAGGCAGGCAUCAAAAGAAAUAGUCUUGCGCUCAACCAGAAAGUCUGUAAUCAUUUUAAGGGUA [A63U U72C], 0.41; as for GUUAACGGUCAUAGGCCAUGGAAACUAGGAGCACCAUUUCGCUGCCAGUGAAGAAAUGAACAAGGAAAAUCUGGGCCAGGCAGGCAUCUAAAGAAAUAGUCUUGCGCUCAACCAGAAAGUCUGUAAUCAUUUUAAGGGUA [A64G A89U], 2.18.
Consider GUUAACGGUCAUAGGCCAUGGAAACUAGGAGCACCAUUUCGCUGCCAGUGAAGAAAUGAACAGAGAAAAUCUGGGCCAGGCAGGCAUCAAAAGAAAUAGUCUUGCGCUCAACCAGAAAGUCUGUAAUCAUUUUAAGGGAA [A63G U139A], for which the self-cleavage was found to be 1.74.
To GUUAACGGUCAUAGGCCAUGGAAACUAGGAGCACCAUUUCGCUGCCAGUGAAGAAAUGAACAAGGAAAAUCUGGGCCAGGCAGGCUUCAAAAGAAAUAGUCUUGCGCUCAACCAGAAAGUCUGUAAUCAUUUUAAGGGUA [A64G A86U] belongs 2.21; to GUUAACGGUCAUAGGCCAUGGAAACUAGGAGCACCAUUUCGCUGCCAGUGAAGAAAUGAACAUAGAAAAUCUGGGCCAGGCAGGCAUCAAAAGAAAUAGUCUUGCGCUCAACCAGAAAGUCUGUAAUCAUUUUAAGGGUA [A63U], 0.82.
As for GUUAACGGUCAUAGGCCAUGGAAACUAGGAGCACCAUUUCGCUGCCAGUGAAGAAAUGAACAUAGAAAAUCUGGGCCAGGCAGGCAUCAAAAGAAAUAGUCUUGCGCUCAACCAGAAAGUCUGUAAUCAUUUUAAGGGUU [A63U A140U], the figure is 1.52; as for GUUAACGGUCAUAGGCCAUGGAAACUAGGAGCACCAUUUCGCUGCCAGUGAAGAAAUGAACAACGAAAAUCUGGGCCAGGCAGGCAUCAAAAGAAAUAGUCUUGCGCUCAACCAGAAAGUCUGUAAUCAUUUUAAGGGUU [A64C A140U], 1.86; as for GUUAACGGUCAUAGGCCAUGGAAACUAGGAGCACCAUUUCGCUGCCAGUGAAGAAAUGAACAACGAAAAUCUGGGCCAGGCAGGCAUCAAAAGGAAUAGUCUUGCGCUCAACCAGAAAGUCUGUAAUCAUUUUAAGGGUA [A64C A94G], 2.25.
As for GUUAACGGUCAUAGGCCAUGGAAACUAGGAGCACCAUUUCGCUGCCAGUGAAGAAAUGAACAUAGAAAAUCUGGGCCAGGCAGGCAUCAAAAGAAAUGGUCUUGCGCUCAACCAGAAAGUCUGUAAUCAUUUUAAGGGUA [A63U A98G], the figure is 0.8; as for GUUAACGGUCAUAGGCCAUGGAAACUAGGAGCACCAUUUCGCUGCCAGUGAAGAAAUGAACAUAGAAAAUCUGGGCCAGGCAGGCAUCAAAAGAAAUAGUCUUGCGCUCAACCAGAAAGUCUGUAAUCAUUUUGAGGGUA [A63U A134G], 0.32.
Turning to GUUAACGGUCAUAGGCCAUGGAAACUAGGAGCACCAUUUCGCUGCCAGUGAAGAAAUGAACAAGGAAAAUCUGGGCCAGGCAGGCAUCAAGAGAAAUAGUCUUGCGCUCAACCAGAAAGUCUGUAAUCAUUUUAAGGGUA [A64G A91G], the self-cleavage is 1.33.
Take GUUAACGGUCAUAGGCCAUGGAAACUAGGAGCACCAUUUCGCUGCCAGUGAAGAAAUGAACAUAGAAAAUCUGGGCCAGGCGGGCAUCAAAAGAAAUAGUCUUGCGCUCAACCAGAAAGUCUGUAAUCAUUUUAAGGGUA [A63U A82G]: the self-cleavage was found to be 0.36.
As for GUUAACGGUCAUAGGCCAUGGAAACUAGGAGCACCAUUUCGCUGCCAGUGAAGAAAUGAACAACGAAAAUCUGGGCCAGGCAGGCAUCAAAAGAAAUAGUCUUGUGCUCAACCAGAAAGUCUGUAAUCAUUUUAAGGGUA [A64C C105U], the figure is 0.17; as for GUUAACGGUCAUAGGCCAUGGAAACUAGGAGCACCAUUUCGCUGCCAGUGAAGAAAUGAACAACGAAAAUCUGGGCCAGGCAGGCAUCAAAAGAAAUAGUCUUGCGCUCAACCAGGAAGUCUGUAAUCAUUUUAAGGGUA [A64C A116G], 0.83.
As for GUUAACGGUCAUAGGCCAUGGAAACUAGGAGCACCAUUUCGCUGCCAGUGAAGAAAUGAACAACGAAAAUCUGGGCCAGGCAGGCAUCAAAAGAAAUAGUCUUGCGCUCAACCAGAAAGUCUGUAAUCAUUUUAAGGGUA [A64C], the figure is 1.69; as for GUUAACGGUCAUAGGCCAUGGAAACUAGGAGCACCAUUUCGCUGCCAGUGAAGAAAUGAACAAGGAAAAUCUGGGCCAGGCAGGCAUCAAAAGAAAUAGUCUUGCGCUCAACCAGAAAGUCUGUAAUCAUUUUAAGGGUA [A64G], 1.2; as for GUUAACGGUCAUAGGCCAUGGAAACUAGGAGCACCAUUUCGCUGCCAGUGAAGAAAUGAACAAGGUAAAUCUGGGCCAGGCAGGCAUCAAAAGAAAUAGUCUUGCGCUCAACCAGAAAGUCUGUAAUCAUUUUAAGGGUA [A64G A66U], 0.44.
GUUAACGGUCAUAGGCCAUGGAAACUAGGAGCACCAUUUCGCUGCCAGUGAAGAAAUGAACAAGGGAAAUCUGGGCCAGGCAGGCAUCAAAAGAAAUAGUCUUGCGCUCAACCAGAAAGUCUGUAAUCAUUUUAAGGGUA [A64G A66G]: the self-cleavage was found to be 1.39.
As for GUUAACGGUCAUAGGCCAUGGAAACUAGGAGCACCAUUUCGCUGCCAGUGAAGAAAUGAACAGAGAAAAUCUGGGCCAGGCAGGCAUCAAAAGAAAUAGUCUUGCGCUCAACCAGAAAGUCUGUAAUCAUUCUAAGGGUA [A63G U132C], the self-cleavage was determined as 1.67.
As for GUUAACGGUCAUAGGCCAUGGAAACUAGGAGCACCAUUUCGCUGCCAGUGAAGAAAUGAACAUAGAAAAUCUGGGCCAGGCAGGCAUCAAAAGAAAUAGUCUUGCGCUCAACCAGAAAGCCUGUAAUCAUUUUAAGGGUA [A63U U120C], the figure is 1.25; as for GUUAACGGUCAUAGGCCAUGGAAACUAGGAGCACCAUUUCGCUGCCAGUGAAGAAAUGAACAACGAAAAUCUGGGCCAGGCAGGCAUCAAAAGAAAUAGUCAUGCGCUCAACCAGAAAGUCUGUAAUCAUUUUAAGGGUA [A64C U102A], 0.71.
To GUUAACGGUCAUAGGCCAUGGAAACUAGGAGCACCAUUUCGCUGCCAGUGAAGAAAUGAACAACGAAAAUCUGGGCCAGGCAGGCAUCAAAAGAAAUAGUCUUGCGCUCAACCAGAAAGUCUGUAAUCAUUUUAAGAGUA [A64C G137A] belongs 1.49.
